Legend:
human IgG (human) [1] = assay: human IgG binding to commercial gel support (ligand at 6 mg/mL gel on epoxy-activated crosslinked agarose); elution, A280
human IgG (human) [2] = assay: human IgG binding to commercial gel support (epoxy-activated crosslinked agarose); elution, A280

Human IgG binding amount (human IgG (human) [1]) [mg/mL gel] | Human IgG binding amount (human IgG (human) [2]) [mg/mL gel] | Substance
50.1 |  | native sequence protein A with the introduced C-terminal cysteine (ligand of rProtein A-Sepharose FF, GE Healthcare Science) (from UniProt P38507 37-327)
 | 45.5 | tetramer of four linked Z domains of protein A with the introduced C-terminal cysteine residue (ligand of MabSelect SuRe, GE Healthcare Science) (designed binder)
